Source: the RNAGym collection of RNA variant scans (doi:10.7554/elife.80360)

B1: Hairpin Ribozyme (parent)
chain: GUCCUCUUUCACGUGCGCGUGAAAGAGAGAAGUGAACCAGAGAAACACACGUUGUGGUAUAUUACCUGGUA

Variants of: B1
Test: self-cleavage, relative activity (ratio to wild type); higher = more cleavage; co-transcriptional

Q: With GUCCUCUUUCACGUGCUCGUGAAAGAGAGAAAUGAACCAGAGAAACACACGUUGUGGUAUAUUACCUGGUA as the variant, how does the self-cleavage read?
A: Its self-cleavage is 0.122.

Q: Which self-cleavage does the source give for GUCCUCUUUCACGUGCUCGUGAAAGAGAGAAGUCAACCAGAGAAACACACGUUGUGGUAUAUUACCUGGUA here?
A: Its self-cleavage is 1.5.

Q: With GUCCUCUUUCACGUGCUCGUGAAAGAGAGAAGUUAACCAGAGAAACACACGUUGUGGUAUAUUACCUGGUA as the variant, how does the self-cleavage read?
A: Its self-cleavage is 1.29.

Q: Which self-cleavage does the source give for GUCCUCUUUCACGUGCUCGUGAAAGAGAGAAGUGAACCAGAGAAACACACUUUGUGGUAUAUUACCUGGUA here?
A: The self-cleavage was 0.798.

Q: Which self-cleavage does the source give for GUCCUCUUUCACGUGCUCGUGAAAGAGAGAAGUGAACCAGAGAAACACACGUUGUUGUAUAUUACCUGGUA here?
A: The self-cleavage was 0.112.

Q: For GUCCUCUUUCACGUGCUCGUGAAAGAGAGAAGUGAACCAGAGAAACACACGUUGUGGUAUAUUACCUGAUA, which self-cleavage is on record?
A: Its self-cleavage is 0.382.

Q: With GUCCUCUUUCACGUGCUCGCGAAAGAGAGAAGUGAACCAGAGAAACACACGUUGUGGUAUAUUACCUGGUA as the variant, how does the self-cleavage read?
A: The self-cleavage was 1.26.

Q: With GUCCUCUUUCACGUGCUCGGGAAAGAGAGAAGUGAACCAGAGAAACACACGUUGUGGUAUAUUACCUGGUA as the variant, how does the self-cleavage read?
A: The self-cleavage was 0.642.

Q: Which self-cleavage does the source give for GUCCUCUUUCACGUGCUCGUGAAAGAGAGAAGUGAACCAGAGAAACACACGCUGUGGUAUAUUACCUGGUA here?
A: The self-cleavage was 0.816.

Q: Which self-cleavage does the source give for GUCCUCUUUCACGUGCUCGUGAAAGAGAGAAGUGAACCAGAGAAACACACGUAGUGGUAUAUUACCUGGUA here?
A: The self-cleavage was 0.841.

Q: For GUCCUCUUUCACGUGCUCGUGAAAGAGAGAAGUGAACCAGAGAAACACACGUGGUGGUAUAUUACCUGGUA, which self-cleavage is on record?
A: The self-cleavage was 0.954.

Q: For GUCCUCUUUCACGUGCUCGUGAAAGAGAGAAGUGAACCAGAGAAACACACGUUGAGGUAUAUUACCUGGUA, which self-cleavage is on record?
A: Its self-cleavage is 0.142.

Q: For GUCCUCUUUCACGUGCUCGUGAAAGAGAGAAGUGAACCAGAGAAACACACGUUGUGGAAUAUUACCUGGUA, which self-cleavage is on record?
A: Its self-cleavage is 0.593.

Q: With GUCCUCUUUCACGUGCUCGUGAAAGAGAGAAGUGAACCAGAGAAACACACGUUGUGGCAUAUUACCUGGUA as the variant, how does the self-cleavage read?
A: The self-cleavage was 1.13.

Q: With GUCCUCUUUCACGUGCUCGUGAAAGAGAGAAGUGAACCAGAGAAACACACGUUGUGGGAUAUUACCUGGUA as the variant, how does the self-cleavage read?
A: Its self-cleavage is 0.644.

Q: For GUCCUCUUUCACGUGCUCGUGAAAGAGAGAAGUGAACCAGAGAAACACACGUUGUGGUAGAUUACCUGGUA, which self-cleavage is on record?
A: Its self-cleavage is 0.343.

Q: With GUCCUCUUUCACGUGCUCGUGAAAGAGAGAAGUGAACCAGAGAAACACACGUUGUGGUAUAAUACCUGGUA as the variant, how does the self-cleavage read?
A: The self-cleavage was 0.198.

Q: For GUCCUCUUUCACGUGCUCGUGAAAGAGAGAAGUGAACCAGAGAAACACACGUUGUGGUAUAGUACCUGGUA, which self-cleavage is on record?
A: The self-cleavage was 0.122.

Q: For GUCCUCUUUCACGUGCUCGUGAAAGAGAGAAGUGAACCAGAGAAACACACGUUGUGGUAUAUUACCCGGUA, which self-cleavage is on record?
A: The self-cleavage was 0.184.

Q: Which self-cleavage does the source give for GUCCUCUUUCACGUGCUCGUGAAAGAGAGAAGUGAACCAGAGAAACACACGUUGUGGUAUAUUACCUGGCA here?
A: The self-cleavage was 0.859.

Q: With GUCCUCUUUCACGUGCUCGUGAAAGAGAGAAGUGAACCAGAGAAACACACGUUGUGGUAUAUUACCUGGGA as the variant, how does the self-cleavage read?
A: The self-cleavage was 0.739.

Q: For GUCCUCUUUCACGUGCGAGUGAAAGAGAGAAGUGAACCAGAGAAACACACGUUGUGGUAUAUUACCUGGUA, which self-cleavage is on record?
A: Its self-cleavage is 1.06.

Q: For GUCCUCUUUCACGUGCGAGUGAAAGAGUGAAGUGAACCAGAGAAACACACGUUGUGGUAUAUUACCUGGUA, which self-cleavage is on record?
A: Its self-cleavage is 0.844.

Q: With GUCCUCUUUCACGUGCGAGUGAAAGAGAGGAGUGAACCAGAGAAACACACGUUGUGGUAUAUUACCUGGUA as the variant, how does the self-cleavage read?
A: Its self-cleavage is 0.115.

Q: With GUCCUCUUUCACGUGCGAGUGAAAGAGAGACGUGAACCAGAGAAACACACGUUGUGGUAUAUUACCUGGUA as the variant, how does the self-cleavage read?
A: The self-cleavage was 0.192.

Q: With GUCCUCUUUCACGUGCGAGUGAAAGAGAGAAGUGGACCAGAGAAACACACGUUGUGGUAUAUUACCUGGUA as the variant, how does the self-cleavage read?
A: The self-cleavage was 1.05.

Q: With GUCCUCUUUCACGUGCGAGUGAAAGAGAGAAGUGUACCAGAGAAACACACGUUGUGGUAUAUUACCUGGUA as the variant, how does the self-cleavage read?
A: Its self-cleavage is 0.734.

Q: Which self-cleavage does the source give for GUCCUCUUUCACGUGCGAGUGAAAGAGAGAAGUGAGCCAGAGAAACACACGUUGUGGUAUAUUACCUGGUA here?
A: Its self-cleavage is 0.972.

Q: With GUCCUCUUUCACGUGCGAGUGAAAGAGAGAAGUGAUCCAGAGAAACACACGUUGUGGUAUAUUACCUGGUA as the variant, how does the self-cleavage read?
A: Its self-cleavage is 0.593.

Q: With GUCCUCUUUCACGUGCGAGUGAAAGAGAGAAGUGAACCGGAGAAACACACGUUGUGGUAUAUUACCUGGUA as the variant, how does the self-cleavage read?
A: Its self-cleavage is 0.395.

Q: For GUCCUCUUUCACGUGCGAGUGAAAGAGAGAAGUGAACCAGGGAAACACACGUUGUGGUAUAUUACCUGGUA, which self-cleavage is on record?
A: Its self-cleavage is 0.76.

Q: Which self-cleavage does the source give for GUCCUCUUUCACGUGCGAGUGAAAGAGAGAAGUGAACCAGAGCAACACACGUUGUGGUAUAUUACCUGGUA here?
A: The self-cleavage was 0.107.

Q: For GUCCUCUUUCACGUGCGAGUGAAAGAGAGAAGUGAACCAGAGUAACACACGUUGUGGUAUAUUACCUGGUA, which self-cleavage is on record?
A: Its self-cleavage is 0.196.

Q: With GUCCUCUUUCACGUGCGAGUGAAAGAGAGAAGUGAACCAGAGAACCACACGUUGUGGUAUAUUACCUGGUA as the variant, how does the self-cleavage read?
A: The self-cleavage was 0.173.

Q: With GUCCUCUUUCACGUGCGAGUGAAAGAGAGAAGUGAACCAGAGAAACGCACGUUGUGGUAUAUUACCUGGUA as the variant, how does the self-cleavage read?
A: Its self-cleavage is 0.216.

Q: Which self-cleavage does the source give for GUCCUCUUUCACGUGCGAGUGAAAGAGAGAAGUGAACCAGAGAAACACACGUUGUGGUAUAUUGCCUGGUA here?
A: Its self-cleavage is 0.61.

Q: For GUCCUCUUUCACGUGCGAGUGAAAGAGAGAAGUGAACCAGAGAAACACACGUUGUGGUAUAUUUCCUGGUA, which self-cleavage is on record?
A: The self-cleavage was 0.158.

Q: With GUCCUCUUUCACGUGCGAGUGAAAGAGAGAAGUGAACCAGAGAAACACACGUUGUGGUAUAUUACCUGGUC as the variant, how does the self-cleavage read?
A: The self-cleavage was 1.34.
